Consider two substances from patent US5968782.

This assay addresses mouse fibrinogen (mouse) (UniProt E9PV24).

Turning to “recombinant mMCP-7-FLAG (EK-activated mature mouse mast cell protease 7 with C-terminal FLAG peptide) (enzyme)”, the fibrinogenolysis assay: time required for thrombin to clot mouse plasma was above 40 s.

With thrombin (enzyme), the time required for thrombin to clot mouse plasma (control) was found to be 15 s.
